Reference: publication PMC12431671, “Receptor transporter protein 4 (RTP4)-mediated repression of hepatitis C virus replication in mouse cells” (PLOS Pathogens, 2025)

Target: T1, HCV NS5A protein (hepatitis C virus J6/JFH1-Jc1, UniProt Q99IB8 1977-2442)
T1 construct: NS5A, cut product of the polyprotein of hepatitis C virus J6/JFH1 (Jc1) chimeric genome; Untagged viral protein, detected with the mouse anti-NS5A antibody 9E10 (a tool); NS5A is a stretch of it; source: made by HCV J6/JFH1-Jc1 infection (MOI of 1) of Huh7-Lunet cells, in fixed cells
T1 sequence: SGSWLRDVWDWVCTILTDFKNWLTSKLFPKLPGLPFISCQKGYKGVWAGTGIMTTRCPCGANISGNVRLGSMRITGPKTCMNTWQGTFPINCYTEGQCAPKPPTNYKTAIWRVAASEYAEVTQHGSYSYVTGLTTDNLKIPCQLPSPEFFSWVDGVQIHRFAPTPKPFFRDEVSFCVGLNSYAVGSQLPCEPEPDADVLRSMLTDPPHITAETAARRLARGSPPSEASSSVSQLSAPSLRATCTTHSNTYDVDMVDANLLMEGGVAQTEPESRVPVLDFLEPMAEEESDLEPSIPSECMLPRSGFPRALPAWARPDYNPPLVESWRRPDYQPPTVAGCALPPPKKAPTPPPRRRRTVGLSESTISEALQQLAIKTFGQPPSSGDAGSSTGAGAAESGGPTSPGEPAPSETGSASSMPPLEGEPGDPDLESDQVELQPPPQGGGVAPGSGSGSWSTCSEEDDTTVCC
Assay: proximity ligation; in situ PLA (Duolink In Situ Detection Reagents Green) in Huh7-Lunet cells infected with HCV J6/JFH1-Jc1 at MOI 1, transduced with FLAG-mmRTP4 or FLAG-hsRTP4 lentivirus, fixed in methanol 48 h post-transduction; Anti-Rabbit MINUS and Anti-Mouse PLUS probes; foci counted in 10 images per sample
Conditions: partners not purified

B1: FLAG-tagged murine receptor transporter protein 4 (FLAG-mmRTP4) (natural protein)
chain: MLFPDDFSTWEQTFQELMQEEKPGAKWSLHLDKNIVPDGAALGWRQHQQTVLGRFQCSRCCRSWTSAQVMILCHMYPDTLKSQGQARMRIFGQKCQKCFGCQFETPKFSTEIIKRILNNLVNYILQRYYGHRKIALTSNASLGEKVTLDGPHDTRNCEACSLNSHGRCALAHKVKPPRSPSPLPKSSSPSKSCPPPPQTRNTDFGNKTFQDFGNRTFQGCREPPQREIEPPLFLFLSIAAFALFSLFTR
notes: Receptor transporter protein 4 (RTP4), mouse; also called mouse RTP4; murine RTP4; source: Huh7-Lunet cells, lentivirally transduced (pLVX), HCV-infected, in fixed cells; not shown: FLAG, N-terminal, kept
- frequency of PLA foci relative to FLAG-hsRTP4 with NS5A: 2 fold
